Laboratory results reported in paper PMC2064389 (The Journal of Cell Biology, 2006).
Changes are numbered by the printed parent chain. Numbers in names are those of the source. Like-named read-outs stand apart in the source and are kept apart here.

Columns and labels:
Assay in all cases: liposome flotation
[1] = target: mArf1p (wild type or Q71L not told) (yeast) (UniProt P11076)
Chs5–Chs6[all] complex [2] = target: T1, Chs5–Chs6[all] complex (yeast, UniProt Q12114 1-671; P40955 1-746; Q05029 1-724; Q08754 1-746; P36122 1-765)
Chs5–Chs6[all] complex [3] = target: T1, Chs5–Chs6[all] complex; remark: listed apart in the source
[4] = target: Complex of Chs5p with two paralogues (Chs6p and Bch1p) (yeast, UniProt Q12114 1-671; P40955 1-746; Q05029 1-724)
Chain of Complex of Chs5p with two paralogues (Chs6p and Bch1p) (Q12114 whole entry, chain 1 of 3): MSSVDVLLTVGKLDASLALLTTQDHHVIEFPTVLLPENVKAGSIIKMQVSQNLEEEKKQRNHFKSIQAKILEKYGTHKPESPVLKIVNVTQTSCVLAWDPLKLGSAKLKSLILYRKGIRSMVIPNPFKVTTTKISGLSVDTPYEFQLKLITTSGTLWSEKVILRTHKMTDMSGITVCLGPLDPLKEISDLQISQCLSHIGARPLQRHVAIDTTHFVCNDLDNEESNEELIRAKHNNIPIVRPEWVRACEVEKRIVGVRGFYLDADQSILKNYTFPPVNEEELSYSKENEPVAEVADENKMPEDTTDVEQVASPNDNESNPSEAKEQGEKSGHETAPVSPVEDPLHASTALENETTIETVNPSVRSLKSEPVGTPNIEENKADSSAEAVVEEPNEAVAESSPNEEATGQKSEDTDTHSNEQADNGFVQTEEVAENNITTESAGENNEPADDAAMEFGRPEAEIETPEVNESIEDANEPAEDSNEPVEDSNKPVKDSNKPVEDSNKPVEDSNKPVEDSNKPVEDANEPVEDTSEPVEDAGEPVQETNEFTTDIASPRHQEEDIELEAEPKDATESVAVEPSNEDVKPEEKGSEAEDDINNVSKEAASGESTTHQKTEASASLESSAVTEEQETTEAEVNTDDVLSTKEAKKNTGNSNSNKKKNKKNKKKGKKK
Chain of Complex of Chs5p with two paralogues (Chs6p and Bch1p) (P40955 whole entry, chain 2 of 3): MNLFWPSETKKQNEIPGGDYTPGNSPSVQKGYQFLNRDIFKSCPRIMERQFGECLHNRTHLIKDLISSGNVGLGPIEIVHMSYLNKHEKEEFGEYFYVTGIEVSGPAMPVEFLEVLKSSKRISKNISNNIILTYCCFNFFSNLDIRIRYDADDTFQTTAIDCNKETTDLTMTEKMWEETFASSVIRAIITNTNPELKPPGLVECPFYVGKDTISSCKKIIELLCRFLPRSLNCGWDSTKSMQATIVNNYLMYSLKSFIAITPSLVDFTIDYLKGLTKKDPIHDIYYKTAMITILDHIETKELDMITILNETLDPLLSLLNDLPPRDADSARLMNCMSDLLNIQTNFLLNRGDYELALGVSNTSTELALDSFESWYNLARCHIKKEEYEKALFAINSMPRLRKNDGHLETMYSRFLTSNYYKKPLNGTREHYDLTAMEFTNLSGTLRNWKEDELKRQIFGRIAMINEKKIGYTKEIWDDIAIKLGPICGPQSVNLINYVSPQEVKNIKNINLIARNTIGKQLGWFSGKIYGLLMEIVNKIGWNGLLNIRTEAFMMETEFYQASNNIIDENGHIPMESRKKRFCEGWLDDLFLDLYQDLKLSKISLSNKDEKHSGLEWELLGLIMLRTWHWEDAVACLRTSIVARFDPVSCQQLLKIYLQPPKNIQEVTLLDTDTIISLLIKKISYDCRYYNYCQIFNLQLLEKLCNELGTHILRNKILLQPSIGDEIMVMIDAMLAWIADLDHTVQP
Chain of Complex of Chs5p with two paralogues (Chs6p and Bch1p) (Q05029 whole entry, chain 3 of 3): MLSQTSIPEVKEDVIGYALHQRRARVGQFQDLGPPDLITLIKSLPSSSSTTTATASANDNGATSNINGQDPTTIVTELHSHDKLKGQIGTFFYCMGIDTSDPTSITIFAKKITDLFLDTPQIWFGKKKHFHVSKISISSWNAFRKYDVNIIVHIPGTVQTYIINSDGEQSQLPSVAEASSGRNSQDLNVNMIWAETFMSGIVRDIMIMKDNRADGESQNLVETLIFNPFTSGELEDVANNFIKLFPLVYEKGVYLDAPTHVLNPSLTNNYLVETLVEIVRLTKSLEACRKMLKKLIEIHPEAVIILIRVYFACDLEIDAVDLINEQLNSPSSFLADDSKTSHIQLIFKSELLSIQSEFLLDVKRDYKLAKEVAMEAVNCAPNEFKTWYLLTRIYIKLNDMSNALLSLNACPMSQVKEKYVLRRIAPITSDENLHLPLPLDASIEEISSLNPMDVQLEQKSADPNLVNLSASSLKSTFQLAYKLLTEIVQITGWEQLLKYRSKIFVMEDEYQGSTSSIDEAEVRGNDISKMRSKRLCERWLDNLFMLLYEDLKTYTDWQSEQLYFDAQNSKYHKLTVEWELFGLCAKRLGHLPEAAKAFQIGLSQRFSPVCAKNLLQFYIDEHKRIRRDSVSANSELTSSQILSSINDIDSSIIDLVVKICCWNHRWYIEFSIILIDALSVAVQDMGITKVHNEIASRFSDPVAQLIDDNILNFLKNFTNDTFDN

Molecule: Chs5–Chs6[all] complex (from UniProt Q12114 1-671; P40955 1-746; Q05029 1-724; Q08754 1-746; P36122 1-765)
- concentration of Chs5–Chs6[all] at which binding was saturated (∼1 μM mArf1p) [1]: 0.5 µM
- stoichiometry N (Arf1 per Chs5–Chs6[all] complex (molar)) [1]: 7.5

B1: Recombinant myristoylated Arf1p (Q71L; GTPase deficient) (natural protein, yeast, UniProt P11076 1-181, looked up)
chain: MGLFASKLFSNLFGNKEMRILMVGLDGAGKTTVLYKLKLGEVITTIPTIGFNVETVQYKNISFTVWDVGGLDRIRSLWRHYYRNTEGVIFVVDSNDRSRIGEAREVMQRMLNEDELRNAAWLVFANKQDLPEAMSAAEITEKLGLHSIRNRPWFIQATCATSGEGLYEGLEWLSNSLKNST
modifications: N-myristoylated (>75% of the protein)
- binding result (Chs5–Chs6[all] complex [2]): binds

B2: Myristoylated wild-type Arf1p (natural protein, yeast, UniProt P11076 1-181, looked up)
chain: B1 chain with L71Q
modifications: N-myristoylated (>75% of the protein)
- binding result (Chs5–Chs6[all] complex [3]): binds
- binding result [4]: binds
